Laboratory results from patent US20030049649, “Targeted modification of chromatin structure” (published 2003).

Biological target: T1, Veg1 (unfused three-finger ZFP) (Artificial (human SP1 backbone), UniProt P08047 SEQ:1-99)
T1 chain: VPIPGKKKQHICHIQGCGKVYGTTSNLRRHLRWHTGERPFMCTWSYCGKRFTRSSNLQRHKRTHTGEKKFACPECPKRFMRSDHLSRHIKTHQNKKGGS
Assay: EMSA; apparent Kd (half-maximal binding), 100 mM KCl, 1 mM MgCl2, 100 uM ZnCl2, room temperature; not corrected for purity
Settings: tags: none, expressed in E. coli BL21/DE3 from pET15b, >50% pure; label: 5' 32P top strand
Method: Assays for binding of Veg1 to the target oligonucleotide (above) were performed by titrating protein against a fixed amount of duplex target. Binding reactions contained 50 pM 5′ ³²P labeled double stranded target DNA, 10 mM Tris-HCl (pH 7.5), 100 mM KCl, 1 mM MgCl₂, 1 mM dithiothreitol, 10% glycerol, 200 μg/ml bovine serum albumin, 0.02% NP-40, 20 μg/ml poly dI-dC (optionally), and 100 μM ZnCl₂, in a final volume of 20 μl. Protein was added to the binding reaction as one-fifth volume from a dilution series made in 200 mM NaCl, 20 mM Tris (pH 7.5), 1 mM DTT. Binding was allowed to proceed for 45 min at room temperature. Polyacrylamide gel electrophoresis was carried out at room temperature using precast 10% or 10-20% Tris-HCl gels (BioRad, Hercules, Calif.) and Tris-Glycine running buffer (25 mM Tris-HCl, 192 mM glycine, pH 8.3) containing 0.1 mM ZnCl₂. Radioactive signals were quantitated with a Phosphorimager.
Shifted product, indicative of labeled target with bound protein, is indicated by an arrow in FIG. 2A. The amount of shifted product was determined at each protein concentration and quantitated on a Phosphorimager (Molecular Dynamics). The relative signal (percent of maximal amount of shifted product) was plotted as a function of log₁₀ protein concentration. […]

B1: Veg1 29-mer target duplex (dsDNA)
DNA 1: CATGCATAGCGGGGAGGATCGCCATCGAT
DNA 2: ATCGATGGCGATCCTCCCCGCTATGCATG
Kd: ~50 nM
